# Data taken from the supplement of paper PMC9112550, “Optimization of the antimicrobial peptide Bac7 by deep mutational scanning” (BMC Biology, 2022).
# Test system: Escherichia coli TOP10
# Test: shrunken log2 fold change of peptide-encoding DNA abundance (4.5 h post-induction vs induction); higher = less antimicrobial activity (less host growth inhibition)
# Details: time post-induction: 4.5 h; library: site-saturation at positions 5, 18, 19, 20
# 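Further: peptides expressed intracellularly from a pBAD plasmid library in pooled LB shake-flask culture, induced with 0.3% L-arabinose, DNA abundance read by NGS, three biological replicates, DESeq2 with apeglm shrinkage.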
row,Sequence,shrunken log2 fold change
1,RRIRVRPPRLPRPRPRPYPLPRP,-0.478
2,RRIRWRPPRLPRPRPRPKESPRP,0.293
3,RRIRNRPPRLPRPRPRPHGMPRP,-0.0652
4,RRIRIRPPRLPRPRPRPVITPRP,-0.553
5,RRIRVRPPRLPRPRPRPHQTPRP,-0.443
6,RRIRIRPPRLPRPRPRPFFEPRP,-0.267
7,RRIRRRPPRLPRPRPRPSANPRP,0.326
8,RRIRNRPPRLPRPRPRPLVLPRP,-0.171
9,RRIRKRPPRLPRPRPRPPTCPRP,0.217
10,RRIRMRPPRLPRPRPRPTCWPRP,0.816
11,RRIRGRPPRLPRPRPRPLGEPRP,1.08
12,RRIRIRPPRLPRPRPRPHRCPRP,-0.0635
13,RRIRYRPPRLPRPRPRPGCPPRP,-0.085
14,RRIRCRPPRLPRPRPRPSWRPRP,-0.0716
15,RRIRNRPPRLPRPRPRPMYEPRP,0.0112
16,RRIRKRPPRLPRPRPRPIVRPRP,-0.0167
17,RRIRLRPPRLPRPRPRPDDFPRP,-0.0359
18,RRIRTRPPRLPRPRPRPVYVPRP,-0.62
19,RRIRMRPPRLPRPRPRPEFRPRP,0.275
20,RRIRGRPPRLPRPRPRPGEPPRP,0.276
21,RRIRKRPPRLPRPRPRPFTSPRP,0.093
22,RRIRLRPPRLPRPRPRPTAQPRP,0.104

row,Sequence,shrunken log2 fold change
1,RRIRHRPPRLPRPRPRPLFKPRP,-0.183
2,RRIRWRPPRLPRPRPRPVESPRP,0.0647
3,RRIRGRPPRLPRPRPRPGCYPRP,0.345
4,RRIRDRPPRLPRPRPRPMIWPRP,-0.0952
5,RRIRQRPPRLPRPRPRPKCSPRP,-0.0276
6,RRIRQRPPRLPRPRPRPCHPPRP,-0.032
7,RRIRQRPPRLPRPRPRPFGQPRP,-0.0598
8,RRIRERPPRLPRPRPRPAPYPRP,-0.123
9,RRIRYRPPRLPRPRPRPLFGPRP,-0.0957
10,RRIRPRPPRLPRPRPRPFALPRP,0.238
11,RRIRERPPRLPRPRPRPPHSPRP,0.0332
12,RRIRPRPPRLPRPRPRPYNGPRP,-0.656
13,RRIRTRPPRLPRPRPRPWGPPRP,-0.0265
14,RRIRYRPPRLPRPRPRPQGGPRP,0.0299
15,RRIRARPPRLPRPRPRPFSRPRP,-0.145
16,RRIRCRPPRLPRPRPRPRSRPRP,0.299
17,RRIRKRPPRLPRPRPRPESLPRP,-0.024
18,RRIRSRPPRLPRPRPRPHCPPRP,-0.0154
19,RRIRNRPPRLPRPRPRPFLKPRP,-0.294
20,RRIRMRPPRLPRPRPRPVRDPRP,0.882
21,RRIRMRPPRLPRPRPRPTDDPRP,0.637
22,RRIRCRPPRLPRPRPRPEENPRP,0.602

row,Sequence,shrunken log2 fold change
1,RRIRGRPPRLPRPRPRPNVKPRP,0.292
2,RRIRERPPRLPRPRPRPVVMPRP,0.116
3,RRIRCRPPRLPRPRPRPCGIPRP,0.153
4,RRIRERPPRLPRPRPRPSVHPRP,-0.329
5,RRIRPRPPRLPRPRPRPTLEPRP,0.393
6,RRIRCRPPRLPRPRPRPTADPRP,0.363
7,RRIRQRPPRLPRPRPRPQVTPRP,-0.00931
8,RRIRSRPPRLPRPRPRPHQFPRP,-0.124
9,RRIRSRPPRLPRPRPRPMACPRP,-0.342
10,RRIRERPPRLPRPRPRPEHPPRP,-0.0878
11,RRIRQRPPRLPRPRPRPWDTPRP,0.14
12,RRIRYRPPRLPRPRPRPGRWPRP,0.475
13,RRIRQRPPRLPRPRPRPDLCPRP,-0.00719
14,RRIRVRPPRLPRPRPRPSNYPRP,-0.342
15,RRIRCRPPRLPRPRPRPFPSPRP,0.118
16,RRIRTRPPRLPRPRPRPVCKPRP,-0.0432
17,RRIRCRPPRLPRPRPRPDRTPRP,0.0438
18,RRIRLRPPRLPRPRPRPLFLPRP,-0.551
19,RRIRWRPPRLPRPRPRPTMRPRP,0.925
20,RRIRRRPPRLPRPRPRPITRPRP,0.0299
21,RRIRYRPPRLPRPRPRPALGPRP,0.0458
22,RRIRARPPRLPRPRPRPGETPRP,0.238

row,Sequence,shrunken log2 fold change
1,RRIRIRPPRLPRPRPRPFSGPRP,-0.241
2,RRIRERPPRLPRPRPRPDSGPRP,-0.533
3,RRIRYRPPRLPRPRPRPVNLPRP,-0.0688
4,RRIRRRPPRLPRPRPRPDVWPRP,0.611
5,RRIRLRPPRLPRPRPRPKTHPRP,-0.0161
6,RRIRHRPPRLPRPRPRPQRFPRP,-0.0098
7,RRIRNRPPRLPRPRPRPERDPRP,0.157
8,RRIRGRPPRLPRPRPRPPDKPRP,1.17
9,RRIRIRPPRLPRPRPRPTLGPRP,-0.139
10,RRIRTRPPRLPRPRPRPSGFPRP,0.131
11,RRIRHRPPRLPRPRPRPKPKPRP,0.231
12,RRIRNRPPRLPRPRPRPYYHPRP,-0.781
13,RRIRCRPPRLPRPRPRPCADPRP,-0.0836
14,RRIRFRPPRLPRPRPRPYISPRP,-0.295
15,RRIRCRPPRLPRPRPRPATWPRP,-0.104
16,RRIRERPPRLPRPRPRPNKLPRP,-0.596
17,RRIRARPPRLPRPRPRPFMFPRP,0.189
18,RRIRIRPPRLPRPRPRPFNIPRP,-0.93
19,RRIRTRPPRLPRPRPRPTMEPRP,-0.489
20,RRIRIRPPRLPRPRPRPMFRPRP,-0.0542
21,RRIRWRPPRLPRPRPRPSNAPRP,-0.0613
22,RRIRVRPPRLPRPRPRPCSCPRP,0.141

row,Sequence,shrunken log2 fold change
1,RRIRNRPPRLPRPRPRPECNPRP,-0.0153
2,RRIRFRPPRLPRPRPRPKRKPRP,0.425
3,RRIRHRPPRLPRPRPRPPMDPRP,-0.309
4,RRIRNRPPRLPRPRPRPNRNPRP,-0.91
5,RRIRARPPRLPRPRPRPLNHPRP,-0.265
6,RRIRKRPPRLPRPRPRPKHCPRP,-0.222
7,RRIRPRPPRLPRPRPRPFYCPRP,-0.212
8,RRIRLRPPRLPRPRPRPICTPRP,-0.243
9,RRIRVRPPRLPRPRPRPPQIPRP,0.22
10,RRIRLRPPRLPRPRPRPDGGPRP,-0.000524
11,RRIRGRPPRLPRPRPRPWRIPRP,-0.15
12,RRIRDRPPRLPRPRPRPIHCPRP,-0.135
13,RRIRERPPRLPRPRPRPSQLPRP,-0.127
14,RRIRPRPPRLPRPRPRPSQNPRP,-0.107
15,RRIRTRPPRLPRPRPRPPQIPRP,0.16
16,RRIRQRPPRLPRPRPRPIAGPRP,0.139
17,RRIRSRPPRLPRPRPRPFYVPRP,-0.546
18,RRIRSRPPRLPRPRPRPYWQPRP,-0.551
19,RRIRGRPPRLPRPRPRPRWYPRP,0.271
20,RRIRIRPPRLPRPRPRPDKSPRP,-0.0563
21,RRIRMRPPRLPRPRPRPQRNPRP,0.209
